According to patent publication US8173604B2, “Inhibition of Skp2-cyclin a interaction” (Albert Einstein College of Medicine of Yeshiva University, priority 2006, dated 2012):

Key:
E2F1-cyclin A binding = target: T1, E2F1-cyclin A binding (Homo sapiens, UniProt P20248); experiment: GST pull-down, competition for E2F1-cyclin A binding
T1 construct: expressed in transfected cells; host or cells: 293T (cyclin A/Cdk2); The GST-E2F1 plasmid was a gift and the fusion was purified on GSH beads
Protocol: (§1) GST pull down, p27 ubiquitylation assay, and cyclin A kinase assay. GST fusion proteins were purified on GSH-beads (Amersham), which were then incubated with transfected cell extracts for 1 hour in 4° C. with rocking. The beads were washed three times with lysis buffer (25 mM Hepes pH 7.6, 100 mM KCl, 0.1 mM EDTA, 10 mM MgCl2, 0.1% NP-40, 10% glycerol, 1 mM DTT) before analysis by SDS-PAGE and Western blotting.
Whether Skp2 competes with another RxL protein, E2F1, for cyclin A binding (Krek et al., 1994) was next determined.

[1] = target: T2, GST-p21 binding to cyclin A/Cdk2 (Homo sapiens, UniProt P20248); experiment: GST pull-down, competition with GST-p21 for binding to cyclin A/Cdk2; conditions: increasing amounts of Skp2N
T2 construct: expressed in transfected cells; host or cells: 293T (cyclin A/Cdk2); The GST-p21 plasmid was a gift and the fusion was purified on GSH beads
Protocol: as §1
Skp2 competes with p27/p21, but not E2F1, for binding to cyclin A. Whether the apparently distinct Skp2-cyclin A interaction and p27-cyclin A interaction are competitive against each other was next evaluated. […] Skp2N also competed with GST-p21 for binding to cyclin A/Cdk2 (FIG. 6A right). Whether the competition between Skp2 and p27/p21 for cyclin A binding could be observed in vivo with endogenous proteins under physiological conditions was next determined. Since abundant amounts of cyclin A are already bound by Skp2 and very little is bound by p27 or p21 in various cell lines (unpublished results), this issue was addressed from the other direction of competition by testing whether p27/p21 could compete Skp2 away from cyclin A. For this purpose, we treated U2OS cells with actinomycin D to activate p53, which led to a significant increase in p21 protein levels.

p27-cyclin A interaction = target: T3, p27-cyclin A interaction (Homo sapiens, UniProt P20248); experiment: GST pull-down, blocking of p27-cyclin A interaction; type: binding; conditions: GST-p27, myc-cyclin A/Cdk2 transfected 293T cell extracts
T3 construct: expressed in transfected cells; host or cells: 293T (cyclin A/Cdk2)
Protocol: as §1
Skp2-cyclin A interaction and p27-cyclin A interaction can be blocked by distinct peptides. An important aspect of the RxL-1-IP interaction is that it can be blocked by a short RxL peptide (Adams et al., 1996). If the Skp2-cyclin A/Cdk2 interaction and the p27-cyclin A/Cdk2 interaction are mediated by different sequences on both sides of the interaction, as shown above, it can be predicted that the RxL peptide should not block Skp2-cyclin A interaction. […] Peptide concentrations required for their respective blocking activities were similar for RxL and 4060 peptides.
Skp2 competes with p27/p21, but not E2F1, for binding to cyclin A. Whether the apparently distinct Skp2-cyclin A interaction and p27-cyclin A interaction are competitive against each other was next evaluated. […] Whether the competition between Skp2 and p27/p21 for cyclin A binding could be observed in vivo with endogenous proteins under physiological conditions was next determined. […]

cyclin A/Cdk2 = target: T4, cyclin A/Cdk2 (Homo sapiens, UniProt P20248+P24941); experiment: In vitro cyclin A/Cdk2 kinase assay with purified proteins (GST-Rb-C substrate); type: biochemical; conditions: 80 nM protein added to p27-containing kinase reaction
T4 construct: made in house; host or cells: insect cells (baculovirus)
Protocol: Cyclin A/Cdk2 kinase assays were performed as described previously (Ji et al., 2004). Both immuno-purified myc-cyclin A/Cdk2 on beads and GST-purified and eluted GST-cyclin A/Cdk2 (baculovirus vectors for GST-cyclin A and Cdk2 were provided by Brian Dynlacht) were used. The amounts of purified proteins were determined by comparing them with known amounts of standard proteins in Coomassie blue stained gels. Phosphorylation of GST-Rb-C was quantified with the ImageQuant software. The Ki of various proteins was determined by non-linear least squares analysis. […] Actual amounts of proteins in 7.5×10^4 HeLa cells were then determined (for example, the amounts of p27, Skp2, and cyclin A in 7.5×10^4 HeLa cells were determined to be about 0.1, 0.2, and 0.1 pmoles, respectively, at 14 hours post-replating; and about 0.01, 0.1, and 1.0 pmoles, respectively, at 19 hours post-replating).
For kinase reactions, insect cell-produced and purified GST-cyclin A/Cdk2 was used at a concentration of ˜3 nM, which was the lowest concentration that yielded readily detectible phosphorylation of GST-Rb-C here. […] Phosphorylation of Rb-C was measured and plotted, and the Ki of these various proteins were determined by non-linear least squares analysis (FIG. 7F). […]
It was then determined whether the 4060 peptide could prevent Skp2N from protecting cyclin A/Cdk2 from inhibition by p27. […]

Effect on E2F1-cyclin A binding (E2F1-cyclin A binding): did not affect | Competition with GST-p21 for binding to cyclin A/Cdk2 [1]: competed | Blocking of p27-cyclin A interaction (p27-cyclin A interaction): progressively diminished | Protection of cyclin A/Cdk2 from inhibition by p27 (cyclin A/Cdk2): completely reversed
B1: Skp2N: Skp2 N-terminus (N terminal 100 residues), GST cleaved (protein)
chain: MHVFKTPGPADAMHRKHLQEIPDLSSNVATSFTWGWDSSKTSELLSGMGVSALEKEEPDSENIPQELLSNLGHPESPPRKRLKSKGSDKDFVIVRRPKLN
modifications: left off: a dimerising Fc or GST
notes: Skp2 N-terminus (N terminal 100 residues), GST cleaved
